Experimental data reported in patent publication US20180021429A1, “ANTICANCER AGENTS OR ANTIMETASTATIC AGENTS USING FSTL1 AND COMBINATION DRUG THEREOF” (PHARMA FOODS INTERNATIONAL CO., LTD., priority 2015, published 2018).

What was measured:
[1] = tested on: induction of mesenchymal stem cells (MSCs) by FSTL1; assay: Inhibitory activity against induction of MSC by FSTL1, CD45-negative cells (Examples 6, 8, 12); assay type: cell-based, mouse; details: Example 8, FIG. 6A/36A; FSTL1 20 ng/mL; antibody 10 μg/mL; 8 days
Description: (§1) Mouse bone marrow cells prepared in the same way as in Example 4 were supplemented with 50 ng/mL (final concentration) of FSTL1 and 10 μg/mL of the anti-FSTL1 antibody (#5-2, #5-3, #5-8, #5-10, 45-43, #6-55, or #7-34) or a control antibody anti-DNP antibody and cultured under stimulation. 11 days thereafter, the number of cells was counted while the cells were stained with a PE-Cy5-labeled anti-CD45 antibody (BD Pharmingen/Becton, Dickinson and Company, Cat. No. 555484), and the content of CD45-negative cells reported to generally contain MSCs at a high rate was analyzed by flow cytometry using FACScan to calculate the percentage and number of MSCs per culture (FIG. 5A).
(§2) Mouse bone marrow cells prepared in the same way as in Example 4 were supplemented with 20 ng/mL (final concentration) of FSTL1 and 10 μg/mL of the anti-FSTL1 antibody (#5-2, #5-3, #5-8, #5-10, #5-43, #6-55, #8-1, #8-4, #8-7, and #8-8) or a control antibody anti-DNP antibody and cultured under stimulation. 8 days thereafter, the number of cells was counted while the cells were stained with a PE-Cy5-labeled anti-CD45 antibody, and the content of CD45-negative cells was analyzed by flow cytometry using FACScan to calculate the percentage and number of MSCs per culture (FIG. 6A).
as §2, with “(#5-2,” for “(#5-2, #5-3,”, “#5-8,” for “#5-8, #5-10, #5-43,”, “#6-55, #7-34,” for “#6-55,”, “#8-7, or” for “#8-7, and”, “(FIG. 7).” for “(FIG. 6A).”
as §1, with “35A).” for “5A).”
as §2, with “36A).” for “6A).”
as §2, with “(#5-2,” for “(#5-2, #5-3,”, “#5-8,” for “#5-8, #5-10, #5-43,”, “#6-55, #7-34,” for “#6-55,”, “#8-7, or” for “#8-7, and”, “(FIG. 37).” for “(FIG. 6A).”

[2] = target: T1, FSTL1 (Homo sapiens, UniProt Q12841); assay: Inhibition of MSC induction by FSTL1 in mouse bone marrow cells, CD45-negative cells (Examples 6, 8, 12); assay type: cell-based; design: purchased R&D Systems, Inc. 1694-FN-050; details: Example 8; FSTL1 20 ng/mL, antibody 10 μg/mL, 8 days
T1 sequence (Q12841 21-308): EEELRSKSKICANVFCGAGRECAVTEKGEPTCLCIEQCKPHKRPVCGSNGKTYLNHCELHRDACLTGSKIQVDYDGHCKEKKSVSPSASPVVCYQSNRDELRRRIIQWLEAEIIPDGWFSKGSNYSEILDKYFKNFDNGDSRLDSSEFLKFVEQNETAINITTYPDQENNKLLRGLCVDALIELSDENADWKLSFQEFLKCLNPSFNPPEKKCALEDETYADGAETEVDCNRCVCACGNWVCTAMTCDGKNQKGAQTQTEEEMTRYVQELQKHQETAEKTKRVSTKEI
Description: as §1, with “CD45− negative” for “CD45-negative”, “67A).” for “5A).”
as §2, with “CD45− negative” for “CD45-negative”, “68A).” for “6A).”
as §2, with “(#5-2,” for “(#5-2, #5-3,”, “#5-8,” for “#5-8, #5-10, #5-43,”, “#6-55, #7-34,” for “#6-55,”, “#8-7, or” for “#8-7, and”, “of CD45− negative” for “of CD45-negative”, “(FIG. 69).” for “(FIG. 6A).”

inhibitory activity against the expansion of CD45-negative cells by FSTL1 [2]: Inhibitory activity was confirmed
B1: #8-8: chicken-mouse chimeric anti-FSTL1 antibody clone; variable regions SEQ ID NO: 803 (light), 805 (heavy) (antibody, V domains shown)
VH: AVTLDESGGGLQTPGGALSLVCKGSGFTFSSFNMFWVRQAPGKGLEWVAGIGKDGVPKYGAAVDGRATISKDNGQSTMRLQLNNLRAEDTGTYYCAKAAGGCSYGWCGAYTGDIDTWGHGTEVIVSS
VL: ASTQPSSVSANPGEAVKITCSGGSGSYYGWYQQKSPGSAPVTVIYNNNQRPSDIPSRFSGSKSGSTATLTITGVQVEDEAVYFCGGYDSSTGHGGIFGAGTTLTVL
modifications: mouse constant regions
inhibitory activity against the expansion of CD45-negative cells by FSTL1 [1]: Inhibitory activity was confirmed
